Source: PMC2811748, “H^+-Independent Glutamine Transport in Plant Root Tips” (PLoS ONE, 2010)

Substrate: NC(=O)CC[C@H](N)C(=O)O
Experiment: cells, lysate or membranes
Assay type: cell-based, Arabidopsis thaliana

B1: CAT8 (Arabidopsis thaliana) (protein)
chain: MIPASMEEAHQLESRSDDLSQRRSYWRWRKQDFFPEFSFQSFSTYKSALSATCPRLADRLLSRSSDAYELDAARRESENPMRRCLTWWDLLWLSFGSVVGSGVFVITGQEARVGAGPAVVLSYAISGVSALLSVLCYAEFGVEIPVAGGSFSYLRVELGDFIAFIAAGNILLEAMVGAAGLGRSWSSYLASLVKNDSDYFRIKVDSFAKGFDLLDPVAVAVLLVANGIAMTGTKRTSWLNLITSMVTVCIIVFIVVVGFTHSKTSNLVPFFPYGAKGVVQSAAVVYWSYTGFDMVANMAEETEKPSRDIPIGLVGSMSMITVVYCLMALALTMMVKYTEIDANAAYSVAFAQIGMKWAKYLVGICALKGMTTSLLVGSLGQARYTTQIARSHMIPPWFALVHPKTGTPIYATLLVTILSSIISFFTSLEVLSSVFSFATLFIFMLVAVALLVRRYYVKDVTPEAGLLKFLGFLFLIIASSIGVSALWNSGVKGWIAYTVTGVIWFIGTLGLALLPKYRVPKVWGVPLVPWLPSFSIAMNLFLIGSLGYVAFLRFIICTMVMLLYYLFVGLHATYDVAHQPLEEAKFEGER
notes: CAT8 (At1g17120) expressed in Xenopus oocytes and in yeast 22Δ8AA
**Q.** Which Km does the source give for B1 here?
**A.** 100 µM
